T1: human APRIL protein (ACRO Biosystems, Cat. No.: APL-H52D1) (human, UniProt O75888 115-250, limits assumed)
T1 sequence (looked up): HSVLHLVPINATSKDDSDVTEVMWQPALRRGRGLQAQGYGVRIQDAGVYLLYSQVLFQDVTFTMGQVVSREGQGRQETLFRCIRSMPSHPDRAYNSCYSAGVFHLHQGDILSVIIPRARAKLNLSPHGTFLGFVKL

T2: human BDCA2 protein (Kactus Biosystems, Cat# BCA-HM402) (human, UniProt Q8WTT0 45-213)
T2 construct: also called Human BDCA2-His
T2 sequence: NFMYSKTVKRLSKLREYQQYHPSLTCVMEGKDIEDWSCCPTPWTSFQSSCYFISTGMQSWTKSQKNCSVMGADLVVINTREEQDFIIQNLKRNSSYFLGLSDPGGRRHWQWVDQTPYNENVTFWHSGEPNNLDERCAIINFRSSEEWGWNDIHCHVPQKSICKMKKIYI


Assays:
[1] = target: T1, human APRIL protein (ACRO Biosystems, …); assay: BLI Octet RED96e, protein captured on AHC sensor, APRIL 100 nM in solution
[2] = target: T2, human BDCA2 protein (Kactus Biosystems, …); assay: BLI Octet RED96e, protein captured on AHC sensor, BDCA2 100 nM in solution
[3] = target: T3, human BAFF protein (ACRO Biosystems, Cat. No.: BAF-H52D4) (human, UniProt Q9Y275 134-285); assay: BLI Octet RED96e, protein captured on AHC sensor, BAFF 100 nM in solution
T3 sequence (Q9Y275 134-285 limits assumed): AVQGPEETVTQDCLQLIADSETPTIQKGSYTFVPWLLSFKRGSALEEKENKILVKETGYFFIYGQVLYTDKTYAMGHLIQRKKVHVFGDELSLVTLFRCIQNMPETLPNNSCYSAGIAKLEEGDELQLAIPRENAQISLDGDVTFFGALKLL

[4] = target: T1, human APRIL protein (ACRO Biosystems, …); assay: BLI Octet RED96e, protein captured on AHC sensor, APRIL 1.56-100 nM in solution
[5] = target: T2, human BDCA2 protein (Kactus Biosystems, …); assay: BLI Octet RED96e, fusion protein captured on AHC sensor, BDCA2 1.56-100 nM in solution
[6] = target: T3, human BAFF protein (ACRO Biosystems, …); assay: BLI Octet RED96e, protein captured on AHC sensor, BAFF 1.56-100 nM in solution
[7] = target: T2, human BDCA2 protein (Kactus Biosystems, …); assay: BLI Octet RED96e, antibody captured on AHC sensor, BDCA2 100 nM in solution

Row | Binder | Kd [1] | Response (nm) [1] | koff [1] | kon [1] | Kd [2] | Response (nm) [2] | koff [2] | kon [2] | Kd [3] | Response (nm) [3] | koff [3] | kon [3] | further results
1 | bispecific fusion protein BI-9D2-3GS4 (bispecific antibody, human IgG1, kappa) heavy: not shown light: ETVLTQSPATLSLSPGERATLSCRASSSVSYMYWFQQKPGQAPRLLIYSTSNLASGIPARFSGSGSGTDYTLTISSLEPEDFAVYYCQQRRNYPHTFGGGTKVEIKRTVAAPSVFIFPPSDEQLKSGTASVVCLLNNFYPREAKVQWKVDNALQSGNSQESVTEQDSKDSTYSLSSTLTLSKADYEKHKVYACEVTHQGLSSPVTKSFNRGEC | 0.616 nM | 0.251 nm | 0.000582 s⁻¹ | 944000 M⁻¹ s⁻¹ | 0.234 nM | 0.551 nm | 3.58e-05 s⁻¹ | 153000 M⁻¹ s⁻¹ | < 0.001 nM | 0.34 nm | < 1e-07 s⁻¹ | 422000 M⁻¹ s⁻¹ | 
2 | bispecific fusion protein BI-9D2-3G4S-8S (bispecific antibody, human IgG1, kappa) heavy: not shown light: ETVLTQSPATLSLSPGERATLSCRASSSVSYMYWFQQKPGQAPRLLIYSTSNLASGIPARFSGSGSGTDYTLTISSLEPEDFAVYYCQQRRNYPHTFGGGTKVEIKRTVAAPSVFIFPPSDEQLKSGTASVVCLLNNFYPREAKVQWKVDNALQSGNSQESVTEQDSKDSTYSLSSTLTLSKADYEKHKVYACEVTHQGLSSPVTKSFNRGEC | 0.166 nM | 0.29 nm | 0.000134 s⁻¹ | 808000 M⁻¹ s⁻¹ | < 0.001 nM | 0.476 nm | < 1e-07 s⁻¹ | 154000 M⁻¹ s⁻¹ | < 0.001 nM | 0.394 nm | < 1e-07 s⁻¹ | 402000 M⁻¹ s⁻¹ | 
3 | bispecific fusion protein BI-9D2-2GS4 (bispecific antibody, human IgG1, kappa) heavy: not shown light: ETVLTQSPATLSLSPGERATLSCRASSSVSYMYWFQQKPGQAPRLLIYSTSNLASGIPARFSGSGSGTDYTLTISSLEPEDFAVYYCQQRRNYPHTFGGGTKVEIKRTVAAPSVFIFPPSDEQLKSGTASVVCLLNNFYPREAKVQWKVDNALQSGNSQESVTEQDSKDSTYSLSSTLTLSKADYEKHKVYACEVTHQGLSSPVTKSFNRGEC | 0.391 nM | 0.242 nm | 0.000339 s⁻¹ | 866000 M⁻¹ s⁻¹ | < 0.001 nM | 0.56 nm | < 1e-07 s⁻¹ | 151000 M⁻¹ s⁻¹ | < 0.001 nM | 0.302 nm | < 1e-07 s⁻¹ | 412000 M⁻¹ s⁻¹ | 
4 | bispecific fusion protein BI-9D2-1GS4 (bispecific antibody, human IgG1, kappa) heavy: not shown light: ETVLTQSPATLSLSPGERATLSCRASSSVSYMYWFQQKPGQAPRLLIYSTSNLASGIPARFSGSGSGTDYTLTISSLEPEDFAVYYCQQRRNYPHTFGGGTKVEIKRTVAAPSVFIFPPSDEQLKSGTASVVCLLNNFYPREAKVQWKVDNALQSGNSQESVTEQDSKDSTYSLSSTLTLSKADYEKHKVYACEVTHQGLSSPVTKSFNRGEC | 0.724 nM | 0.261 nm | 0.000589 s⁻¹ | 813000 M⁻¹ s⁻¹ | < 0.001 nM | 0.591 nm | < 1e-07 s⁻¹ | 149000 M⁻¹ s⁻¹ | < 0.001 nM | 0.299 nm | < 1e-07 s⁻¹ | 400000 M⁻¹ s⁻¹ | 
5 | bispecific fusion protein BI-9D2-3G4S-4S (bispecific antibody, human IgG1, kappa) heavy: not shown light: ETVLTQSPATLSLSPGERATLSCRASSSVSYMYWFQQKPGQAPRLLIYSTSNLASGIPARFSGSGSGTDYTLTISSLEPEDFAVYYCQQRRNYPHTFGGGTKVEIKRTVAAPSVFIFPPSDEQLKSGTASVVCLLNNFYPREAKVQWKVDNALQSGNSQESVTEQDSKDSTYSLSSTLTLSKADYEKHKVYACEVTHQGLSSPVTKSFNRGEC | 0.528 nM | 0.285 nm | 0.000435 s⁻¹ | 824000 M⁻¹ s⁻¹ | < 0.001 nM | 0.457 nm | < 1e-07 s⁻¹ | 155000 M⁻¹ s⁻¹ | < 0.001 nM | 0.358 nm | < 1e-07 s⁻¹ | 382000 M⁻¹ s⁻¹ | 
6 | bispecific fusion protein BI-9ND2-4GS4 (bispecific antibody, human IgG1, kappa) heavy: not shown light: ETVLTQSPATLSLSPGERATLSCRASSSVSYMYWFQQKPGQAPRLLIYSTSNLASGIPARFSGSGSGTDYTLTISSLEPEDFAVYYCQQRRNYPHTFGGGTKVEIKRTVAAPSVFIFPPSDEQLKSGTASVVCLLNNFYPREAKVQWKVDNALQSGNSQESVTEQDSKDSTYSLSSTLTLSKADYEKHKVYACEVTHQGLSSPVTKSFNRGEC | 0.0667 nM | 0.298 nm | 7.79e-05 s⁻¹ | 1.17e+06 M⁻¹ s⁻¹ | < 0.001 nM | 0.484 nm | < 1e-07 s⁻¹ | 125000 M⁻¹ s⁻¹ | < 0.001 nM | 0.468 nm | < 1e-07 s⁻¹ | 522000 M⁻¹ s⁻¹ | 
7 | bispecific fusion protein BI-9ND2-2GS4 (bispecific antibody, human IgG1, kappa) heavy: not shown light: ETVLTQSPATLSLSPGERATLSCRASSSVSYMYWFQQKPGQAPRLLIYSTSNLASGIPARFSGSGSGTDYTLTISSLEPEDFAVYYCQQRRNYPHTFGGGTKVEIKRTVAAPSVFIFPPSDEQLKSGTASVVCLLNNFYPREAKVQWKVDNALQSGNSQESVTEQDSKDSTYSLSSTLTLSKADYEKHKVYACEVTHQGLSSPVTKSFNRGEC | 0.275 nM | 0.339 nm | 0.000257 s⁻¹ | 937000 M⁻¹ s⁻¹ | < 0.001 nM | 0.466 nm | < 1e-07 s⁻¹ | 115000 M⁻¹ s⁻¹ | < 0.001 nM | 0.492 nm | < 1e-07 s⁻¹ | 456000 M⁻¹ s⁻¹ | 
8 | bispecific fusion protein BI-9NTACI-A (bispecific antibody, human IgG1, kappa, also called heavy chain 37F2C6-HuVH3-3N-TACI) heavy: not shown light: ETVLTQSPATLSLSPGERATLSCRASSSVSYMYWFQQKPGQAPRLLIYSTSNLASGIPARFSGSGSGTDYTLTISSLEPEDFAVYYCQQRRNYPHTFGGGTKVEIKRTVAAPSVFIFPPSDEQLKSGTASVVCLLNNFYPREAKVQWKVDNALQSGNSQESVTEQDSKDSTYSLSSTLTLSKADYEKHKVYACEVTHQGLSSPVTKSFNRGEC |  |  |  |  |  |  |  |  |  |  |  |  | Kd [4]: 0.619 nM; koff [4]: 0.000478 s⁻¹; kon [4]: 772000 M⁻¹ s⁻¹; Kd [5]: < 0.001 nM; koff [5]: < 1e-07 s⁻¹; kon [5]: 85400 M⁻¹ s⁻¹; Kd [6]: 0.951 nM; koff [6]: 0.000342 s⁻¹; kon [6]: 360000 M⁻¹ s⁻¹
9 | bispecific fusion protein BI-9ND2-3GS4 (bispecific antibody, human IgG1, kappa) heavy: not shown light: ETVLTQSPATLSLSPGERATLSCRASSSVSYMYWFQQKPGQAPRLLIYSTSNLASGIPARFSGSGSGTDYTLTISSLEPEDFAVYYCQQRRNYPHTFGGGTKVEIKRTVAAPSVFIFPPSDEQLKSGTASVVCLLNNFYPREAKVQWKVDNALQSGNSQESVTEQDSKDSTYSLSSTLTLSKADYEKHKVYACEVTHQGLSSPVTKSFNRGEC | 0.0944 nM | 0.327 nm | 9.99e-05 s⁻¹ | 1.06e+06 M⁻¹ s⁻¹ | < 0.001 nM | 0.473 nm | < 1e-07 s⁻¹ | 117000 M⁻¹ s⁻¹ | < 0.001 nM | 0.487 nm | < 1e-07 s⁻¹ | 489000 M⁻¹ s⁻¹ | 
10 | control antibody litifilimab analogue (antibody, human IgG1, kappa, V domains shown, Anti-BDCA2 control antibody expressed in ExpiCHO-S cells) VH: DVQLVESGGGLVKPGGSLRLSCAASGFTFSTYTMSWVRQAPGKGLEWVATISPGDSFGYYYPDSVQGRFTISRDNAKNSLYLQMNSLRAEDTAVYYCTRDIYYNYGAWFAYWGQGTLVTVSS VL: DIQLTQSPSSLSASVGDRVTITCKASQSVDYDGDSYMNWYQQKPGKAPKLLIYAASTLESGVPSRFSGSGSGTDFTLTISSLQPEDFATYYCQQANEDPRTFGQGTKVEIKR | 6.5 nM | 0.296 nm | 0.000643 s⁻¹ | 99000 M⁻¹ s⁻¹ | < 0.001 nM | 0.444 nm | < 1e-07 s⁻¹ | 172000 M⁻¹ s⁻¹ | < 0.001 nM | 0.0284 nm | < 1e-07 s⁻¹ | 300000 M⁻¹ s⁻¹ | 
11 | anti-BDCA2 humanized antibody Hu37F2C6-8 (antibody, human IgG1, kappa, V domains shown) VH: QVQLVQSGAEVKKPGASVKVSCKASGYTFTDFAVHWVRQAPGQRLEWMGLIGTSSGSTNYNQKFQGRVTMTVDKSANTAYMELSSLRSEDTAVYYCARNGYYVGYYALDYWGQGTTVTVSS VL: ETVLTQSPATLSLSPGERATLSCRASSSVSYMYWFQQKPGQAPRLLIYSTSNLASGIPARFSGSGSGTDYTLTISSLEPEDFAVYYCQQRRNYPHTFGGGTKVEIKR |  |  |  |  |  |  |  |  |  |  |  |  | Kd [7]: < 0.001 nM; koff [7]: < 1e-07 s⁻¹; kon [7]: 113000 M⁻¹ s⁻¹
12 | anti-BDCA2 humanized antibody Hu37F2C6-9 (antibody, human IgG1, kappa, V domains shown, also called humanized 37F2C6-9) VH: QVQLVQSGAEVKKPGASVKVSCKASGYTFTDFAVHWVRQAPGQRLEWMGLIGTSSGSTNYNQKFQGRATMTVDKSANTAYMELSSLRSEDTAVYYCARNGYYVGYYALDYWGQGTTVTVSS VL: ETVLTQSPATLSLSPGERATLSCRASSSVSYMYWFQQKPGQAPRLLIYSTSNLASGIPARFSGSGSGTDYTLTISSLEPEDFAVYYCQQRRNYPHTFGGGTKVEIKR |  |  |  |  |  |  |  |  |  |  |  |  | Kd [7]: < 0.001 nM; koff [7]: < 1e-07 s⁻¹; kon [7]: 121000 M⁻¹ s⁻¹

From EP4786495A1 (Nanjing Leads Biolabs Co., Ltd., dated 2026)
